Source: patent US20090053242A1 (Amgen, published 2009)

T1: human c-Mpl receptor (TPO receptor), full-length, transfected into IL-3 dependent murine 32D cells (human, UniProt P40238 26-635)
T1 sequence (looked up): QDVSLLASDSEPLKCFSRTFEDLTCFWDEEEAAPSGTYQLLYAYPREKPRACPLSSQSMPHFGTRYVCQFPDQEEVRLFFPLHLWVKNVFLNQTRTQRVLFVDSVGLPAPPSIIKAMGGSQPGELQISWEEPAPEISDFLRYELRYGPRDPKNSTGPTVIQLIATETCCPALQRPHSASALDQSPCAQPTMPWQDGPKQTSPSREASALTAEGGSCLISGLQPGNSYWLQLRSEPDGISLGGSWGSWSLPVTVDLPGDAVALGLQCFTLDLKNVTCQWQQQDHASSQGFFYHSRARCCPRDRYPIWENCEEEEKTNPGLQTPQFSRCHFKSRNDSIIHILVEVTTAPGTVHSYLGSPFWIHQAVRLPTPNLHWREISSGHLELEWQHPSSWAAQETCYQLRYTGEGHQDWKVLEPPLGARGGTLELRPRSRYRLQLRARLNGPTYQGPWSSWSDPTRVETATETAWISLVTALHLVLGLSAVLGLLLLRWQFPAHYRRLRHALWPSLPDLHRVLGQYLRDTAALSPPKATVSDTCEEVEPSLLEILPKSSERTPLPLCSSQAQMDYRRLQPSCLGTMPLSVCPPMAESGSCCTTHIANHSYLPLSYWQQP


Target: human c-Mpl receptor (TPO receptor), full-length, transfected into IL-3 dependent murine 32D cells (human) (UniProt P40238)
Experiment: cell-based or functional assay

| potency in TPO-dependent cell-proliferation assay, against the monomer | Molecule |
| --- | --- |
| > 1000 fold | TMP tandem dimer with linker of 14 glycine residues (peptide) |
| > 1000 fold | TMP tandem dimer with linker of 9 glycine residues (peptide) |
| > 1000 fold | TMP tandem dimer with linker of 10 glycine residues (peptide) |

Target: T1, human c-Mpl receptor (TPO receptor), …
Experiment: cell-based or functional assay

| Molecule | potency in TPO-dependent cell-proliferation assay, against the monomer | activity in cell-proliferation assay, against the GGGG-linked analog | potency in cell-proliferation assay, against the monomer |
| --- | --- | --- | --- |
| IEGPTLRQWLAARAGIEGPTLRQWLAARA [TMP tandem dimer with linker of 1 glycine residue] | > 1000 fold |  |  |
| IEGPTLRQWLAARAGGGGGGGIEGPTLRQWLAARA [TMP tandem dimer with linker of 7 glycine residues] | > 1000 fold |  |  |
| IEGPTLRQWLAARAGGGGIEGPTLRQWLAARA [TMP tandem dimer with linker of 4 glycine residues] | > 1000 fold |  |  |
| IEGPTLRQWLAARAGGIEGPTLRQWLAARA [TMP tandem dimer with linker of 2 glycine residues] | > 1000 fold |  |  |
| IEGPTLRQWLAARAGGGGGGIEGPTLRQWLAARA [TMP tandem dimer with linker of 6 glycine residues] | > 1000 fold |  |  |
| IEGPTLRQWLAARAGGGIEGPTLRQWLAARA [TMP tandem dimer with linker of 3 glycine residues] | > 1000 fold |  |  |
| IEGPTLRQWLAARAGGGGGIEGPTLRQWLAARA [TMP tandem dimer with linker of 5 glycine residues] | > 1000 fold |  |  |

The remaining lines, values ahead:

| potency in TPO-dependent cell-proliferation assay, against the monomer | activity in cell-proliferation assay, against the GGGG-linked analog | potency in cell-proliferation assay, against the monomer | Molecule |
| --- | --- | --- | --- |
|  | > 10 fold less active | ~100 fold | IEGPTLRQWLAARAGPNGIEGPTLRQWLAARA [peptide 13, TMP tandem dimer with GPNG linker] |
| > 1000 fold |  |  | IEGPTLRQWLAARAIEGPTLRQWLAARA [TMP tandem dimer without linker (0 glycine residues)] |
| > 1000 fold |  |  | IEGPTLRQWLAARAGGGGGGGGIEGPTLRQWLAARA [TMP tandem dimer with linker of 8 glycine residues] |
